Test results reported in PMC3864932, “Identification of Crucial Amino Acids in Mouse Aldehyde Oxidase 3 That Determine Substrate Specificity” (PLoS ONE, 2013).
Substitutions are numbered along the chain they refer to. Names and notes keep the numbering of the source. Read-outs that look alike come from different tables or passages of the source.

Legend:
[1] = test system: T1, mAOX3-FeSI-mAOX1; assay: steady-state kinetics, DCPIP reduction at […] nm; format: biochemical, Mus musculus; details: 100 µM DCPIP as electron acceptor, 50 mM Tris-HCl pH 8.0, 1 mM EDTA, 37 °C; kcat corrected for Mo content
T1 construct: gene Aox3; mAOX3 with A87-Q214 replaced by T83-Q213 of mAOX1 (FeSI domain); N-terminal His6-tag; E. coli; dimer

[2] = test system: T2, mAOX3-FeSII-FeSI-mAOX1; assay: steady-state kinetics, DCPIP reduction at […] nm; format: biochemical, Mus musculus; details: 100 µM DCPIP as electron acceptor, 50 mM Tris-HCl pH 8.0, 1 mM EDTA, 37 °C; kcat corrected for Mo content
T2 construct: gene Aox3; mAOX3 with M1-Q214 replaced by M1-Q213 of mAOX1 (both FeS domains); N-terminal His6-tag; E. coli; dimer

[3] = test system: T3, mAOX3-FeSII-mAOX1; assay: steady-state kinetics, DCPIP reduction at […] nm; format: biochemical, Mus musculus; details: 100 µM DCPIP as electron acceptor, 50 mM Tris-HCl pH 8.0, 1 mM EDTA, 37 °C, kcat corrected for Mo content
T3 construct: gene Aox3; mAOX3 with M1-P80 replaced by M1-P76 of mAOX1 (FeSII domain); N-terminal His6-tag; E. coli; dimer

[4] = test system: T4, mAOX3-FeSII-FeSI-mAOX1; details: read-out: mAOX3-FeSII-FeSI-mAOX1; O2 (air-saturated buffer) as electron acceptor, 50 mM Tris-HCl pH 8.0, 1 mM EDTA, 37 °C; kcat corrected for Mo content
T4 construct: gene Aox3

[5] = test system: T5, mAOX3-FeSI-mAOX1; details: read-out: mAOX3-FeSI-mAOX1; O2 (air-saturated buffer) as electron acceptor, 50 mM Tris-HCl pH 8.0, 1 mM EDTA, 37 °C; kcat corrected for Mo content
T5 construct: gene Aox3

[6] = test system: T6, mAOX3-FeSII-mAOX1; details: read-out: mAOX3-FeSII-mAOX1; O2 (air-saturated buffer) as electron acceptor, 50 mM Tris-HCl pH 8.0, 1 mM EDTA, 37 °C; kcat corrected for Mo content
T6 construct: gene Aox3

[7] = substrate: c1ccc2c(c1)cnc1ccccc12; assay: purified protein; details: O2 (air-saturated buffer) as electron acceptor, 50 mM Tris-HCl pH 8.0, 1 mM EDTA, 37 °C, kcat corrected for Mo content
[8] = substrate: c1ccc2cnncc2c1; assay: purified protein; format: biochemical, Mus musculus; details: 100 µM DCPIP as electron acceptor, 50 mM Tris-HCl pH 8.0, 1 mM EDTA, 37 °C, kcat corrected for Mo content
[9] = substrate: O=Cc1ccccc1; assay: purified protein; format: biochemical, Mus musculus; details: 100 µM DCPIP as electron acceptor, 50 mM Tris-HCl pH 8.0, 1 mM EDTA, 37 °C, kcat corrected for Mo content
[10] = substrate: C[n+]1cccc(C(N)=O)c1; assay: purified protein; format: biochemical, Mus musculus; details: 100 µM DCPIP as electron acceptor, 50 mM Tris-HCl pH 8.0, 1 mM EDTA, 37 °C, kcat corrected for Mo content
[11] = substrate: Oc1ncnc2[nH]ncc12; assay: purified protein; format: biochemical, Mus musculus; details: 100 µM DCPIP as electron acceptor, 50 mM Tris-HCl pH 8.0, 1 mM EDTA, 37 °C, kcat corrected for Mo content
[12] = substrate: O=c1[nH]cnc2nc[nH]c12; assay: purified protein; format: biochemical, Mus musculus; details: 100 µM DCPIP as electron acceptor, 50 mM Tris-HCl pH 8.0, 1 mM EDTA, 37 °C, kcat corrected for Mo content

Molecule: O=c1[nH]cnc2[nH]ncc12 [allopurinol]
- Km [1]: 1340 ± 43 µM

Molecule: O=Cc1ccccc1 [benzaldehyde]
- Km [2]: 2.2 ± 0.1 µM
- Km ([3]; read-out: mAOX3-FeSII-mAOX1): 1.6 ± 0.1 µM
- Km [1]: 3.6 ± 0.3 µM

Molecule: c1ccc2c(c1)cnc1ccccc12 [phenanthridine]
- Km [4]: 28 ± 2 µM
- Km [5]: 35 ± 2 µM
- Km [6]: 30 ± 5 µM

Molecule: c1ccc2cnncc2c1 [phthalazine]
- Km [2]: 1 ± 0.1 µM
- Km ([3]; read-out: mAOX3-WT ^4): 1.4 ± 0.2 µM
- Km [1]: 1.2 ± 0.1 µM

B1: mAOX3 (mouse aldehyde oxidase 3) (Mus musculus; P1015G) (protein)
chain: MSPSKESDELIFFVNGKKVTERNADPEVNLLFYLRKVIRLTGTKYGCGGGDCGACTVMISRYDPISKRISHFSATACLVPICSLHGAAVTTVEGIGSTKTRIHPVQERIAKGHGTQCGFCTPGMVMSIYTLLRNHPEPSTEQIMETLGGNLCRCTGYRPIVESAKSFCPSSTCCQMNGEGKCCLDEEKNEPERKNSVCTKLYEKKEFQPLDPTQELIFPPELMRMAEESQNTVLTFRGERTTWIAPGTLNDLLELKMKHPSAPLVIGNTYLGLHMKFTDVSYPIIISPARILELFVVTNTKQGLTLGAGLSLTQVKNVLSDVVSRLPKEKTQIYCALLKQLKTLAGQQIRNVASLGGHIISRLPTSDLNPILGIGNCILNVASTEGIQQIPLNDHFLAGVPDAILKPEQVLISVFVPRSSKWEFVSAFRQAPRQQNAFATVNAGMKVVFKEDTNTITDLGILYGGIGATVISADKSCRQLIGRCWDEEMLDDAGKMICEEVSLLMAAPGGMEEYRKTLAISFLFMFYLDVLKQLKTRDPHKYPDISQKLLHILEDFPLTMPYGMQSFQDVDFQQPLQDPIGRPIMHQSGIKHATGEAVFCDDMSVLPGELFLAVVTSSKSHAKIISLDASEALASLGVVDVVTARDVPGDNGREEESLYAQDEVICVGQIVCAVAADSYAHAQQAAKKVKIVYQDIEPMIVTVQDALQYESFIGPERKLEQGNVEEAFQCADQILEGEVHLGGQEHFYMETQSVRVVPKGEDKEMDIYVSSQDAAFTQEMVARTLGIPKNRINCHVKRVGGAFGGKASKPGLLASVAAVAAQKTGRPIRFILERRDDMLITGGRHPLLGKYKIGFMNNGKIKAADIQLYINGGCTPDDSELVIEYALLKLENAYKIPNLRVRGRVCKTNLPSNTAFRGFGFPQGAFVTETCMSAVAAKCRLPPEKVRELNMYRTIDRTIHNQEFDPTNLLQCWEACVENSSYYNRKKAVDEFNQQRFWKKRGIAIIPMKFSVGFGKTFYYQAAALVQIYTDGSVLVAHGGVELGQGINTKMIQVASRELKIPMSYIHLDEMSTVTVPNTVTTGASTGADVNGRAVQNACQILMKRLEPIIKQNPSGTWEEWVKEAFVQSISLSATGYFRGYQADMDWEKGEGDIFPYFVFGAACSEVEIDCLTGAHKNIRTDIVMDGSFSINPAVDIGQIEGAFVQGLGLYTLEELKYSPEGVLYTRGPHQYKIASVTDIPEEFHVSLLTPTPNPKAIYSSKGLGEAGTFLGCSVFFAIAAAVAAAREERGLSPIWAINSPATAEVIRMACEDQFTNLVPQTDSKCCKPWSIPVA
- Km [7]: 47 ± 2 µM
- kcat [7]: 8.83 s⁻¹
- kcat/Km [7]: 189000 M⁻¹ s⁻¹

B2: mAOX3 (mouse aldehyde oxidase 3) (Mus musculus; F1014V) (protein)
chain: B1 chain with F1014V, G1015P
notes: N-terminal His6-tag, full length, plasmid pMMA1, expressed in E. coli; homodimer with Moco, two [2Fe-2S], FAD
- Km [8]: 12.5 ± 0.6 µM
- kcat [8]: 4.63 ± 0.233 s⁻¹
- kcat/Km [8]: 372000 ± 25000 M⁻¹ s⁻¹

B3: mAOX3 (mouse aldehyde oxidase 3) (Mus musculus; F1014I) (protein)
chain: B1 chain with F1014I, G1015P
notes: as for B2
- Km [9]: 22.7 ± 2.7 µM
- kcat [9]: 0.317 ± 0.05 s⁻¹
- kcat/Km [9]: 13300 ± 3330 M⁻¹ s⁻¹

B4: mAOX3 (mouse aldehyde oxidase 3) (Mus musculus; P1015A) (protein)
chain: B1 chain with G1015A
notes: as for B2
- Km [10]: 87 ± 3.4 µM
- kcat [10]: 1.08 ± 0.183 s⁻¹
- kcat/Km [10]: 12400 ± 2200 M⁻¹ s⁻¹

B5: mAOX3 (mouse aldehyde oxidase 3) (Mus musculus; A807E/D878L/F776K/L881S/P1015T/Y1019L/Y885R) (protein)
chain: B1 chain with F776K, A807E, D878L, L881S, Y885R, G1015T, Y1019L
notes: as for B2
- Km [11]: 2933 ± 380 µM
- kcat [11]: 0.233 ± 0.0167 s⁻¹
- kcat/Km [11]: 83.3 ± 16.7 M⁻¹ s⁻¹

B6: mAOX3 (mouse aldehyde oxidase 3) (Mus musculus; A807E/D878L/F776K/K889H/L881S/P1015T/Y1019L/Y885R) (protein)
chain: B1 chain with F776K, A807E, D878L, L881S, Y885R, K889H, G1015T, Y1019L
notes: as for B2
- Km [12]: 4085 ± 227 µM
- kcat [12]: 0.417 ± 0.0167 s⁻¹
- kcat/Km [12]: 104 ± 8 M⁻¹ s⁻¹
- Km [9]: 2122 ± 88 µM
- kcat [9]: 3.9 ± 0.25 s⁻¹
- kcat/Km [9]: 1830 ± 133 M⁻¹ s⁻¹
- Km [11]: 133 ± 10 µM
- kcat [11]: 1.58 ± 0.1 s⁻¹
- kcat/Km [11]: 12000 ± 1120 M⁻¹ s⁻¹

B7: mAOX3 (mouse aldehyde oxidase 3) (Mus musculus; A807E/D878L/F776K/G1013S/K1016V/K889H/L881S/P1015T/S1011G/V1012I/Y1019L/Y1020N/Y885R) (protein)
chain: MSPSKESDELIFFVNGKKVTERNADPEVNLLFYLRKVIRLTGTKYGCGGGDCGACTVMISRYDPISKRISHFSATACLVPICSLHGAAVTTVEGIGSTKTRIHPVQERIAKGHGTQCGFCTPGMVMSIYTLLRNHPEPSTEQIMETLGGNLCRCTGYRPIVESAKSFCPSSTCCQMNGEGKCCLDEEKNEPERKNSVCTKLYEKKEFQPLDPTQELIFPPELMRMAEESQNTVLTFRGERTTWIAPGTLNDLLELKMKHPSAPLVIGNTYLGLHMKFTDVSYPIIISPARILELFVVTNTKQGLTLGAGLSLTQVKNVLSDVVSRLPKEKTQIYCALLKQLKTLAGQQIRNVASLGGHIISRLPTSDLNPILGIGNCILNVASTEGIQQIPLNDHFLAGVPDAILKPEQVLISVFVPRSSKWEFVSAFRQAPRQQNAFATVNAGMKVVFKEDTNTITDLGILYGGIGATVISADKSCRQLIGRCWDEEMLDDAGKMICEEVSLLMAAPGGMEEYRKTLAISFLFMFYLDVLKQLKTRDPHKYPDISQKLLHILEDFPLTMPYGMQSFQDVDFQQPLQDPIGRPIMHQSGIKHATGEAVFCDDMSVLPGELFLAVVTSSKSHAKIISLDASEALASLGVVDVVTARDVPGDNGREEESLYAQDEVICVGQIVCAVAADSYAHAQQAAKKVKIVYQDIEPMIVTVQDALQYESFIGPERKLEQGNVEEAFQCADQILEGEVHLGGQEHFYMETQSVRVVPKGEDKEMDIYVSSQDAAKTQEMVARTLGIPKNRINCHVKRVGGAFGGKESKPGLLASVAAVAAQKTGRPIRFILERRDDMLITGGRHPLLGKYKIGFMNNGKIKAADIQLYINGGCTPDLSESVIERALLHLENAYKIPNLRVRGRVCKTNLPSNTAFRGFGFPQGAFVTETCMSAVAAKCRLPPEKVRELNMYRTIDRTIHNQEFDPTNLLQCWEACVENSSYYNRKKAVDEFNQQRFWKKRGIAIIPMKFGISFTVTFLNQAAALVQIYTDGSVLVAHGGVELGQGINTKMIQVASRELKIPMSYIHLDEMSTVTVPNTVTTGASTGADVNGRAVQNACQILMKRLEPIIKQNPSGTWEEWVKEAFVQSISLSATGYFRGYQADMDWEKGEGDIFPYFVFGAACSEVEIDCLTGAHKNIRTDIVMDGSFSINPAVDIGQIEGAFVQGLGLYTLEELKYSPEGVLYTRGPHQYKIASVTDIPEEFHVSLLTPTPNPKAIYSSKGLGEAGTFLGCSVFFAIAAAVAAAREERGLSPIWAINSPATAEVIRMACEDQFTNLVPQTDSKCCKPWSIPVA
notes: as for B2
- Km [12]: 1736 ± 155 µM
- kcat [12]: 0.0833 s⁻¹
- kcat/Km [12]: 47.8 ± 5.83 M⁻¹ s⁻¹
- Km [11]: 620 ± 16 µM
- kcat [11]: 0.65 ± 0.05 s⁻¹
- kcat/Km [11]: 1050 ± 83.3 M⁻¹ s⁻¹
